The source of these data is PMC4683621.

The test concerns the target wild-type PaCLPP (Podospora anserina (endogenous in P. anserina mitochondria)). Kind of test: native gel or EMSA; BN-PAGE of mitochondrial protein extracts from P. anserina strains, western blot with a PaCLPP- or HsCLPP-specific antibody. (A gel shift assay detects complexes by their altered migration in electrophoresis.)

Values joined by “and” are separate entries in the source; they are usually repeats but may differ in a detail not shown here. Equal values may be shown once.

As to wild-type PaCLPP (enzyme), the stoichiometry N is 7 and 14.

One may read the stoichiometry N as a count of units in the complex or per binding partner.
